Reference: publication PMC3963495

Molecular target: microtubules (polymer of tubulin)
Assay: single-molecule TIRF microscopy on microtubules

Sequence of microtubules (polymer of tubulin) (P68363 whole entry, chain 1 of 2): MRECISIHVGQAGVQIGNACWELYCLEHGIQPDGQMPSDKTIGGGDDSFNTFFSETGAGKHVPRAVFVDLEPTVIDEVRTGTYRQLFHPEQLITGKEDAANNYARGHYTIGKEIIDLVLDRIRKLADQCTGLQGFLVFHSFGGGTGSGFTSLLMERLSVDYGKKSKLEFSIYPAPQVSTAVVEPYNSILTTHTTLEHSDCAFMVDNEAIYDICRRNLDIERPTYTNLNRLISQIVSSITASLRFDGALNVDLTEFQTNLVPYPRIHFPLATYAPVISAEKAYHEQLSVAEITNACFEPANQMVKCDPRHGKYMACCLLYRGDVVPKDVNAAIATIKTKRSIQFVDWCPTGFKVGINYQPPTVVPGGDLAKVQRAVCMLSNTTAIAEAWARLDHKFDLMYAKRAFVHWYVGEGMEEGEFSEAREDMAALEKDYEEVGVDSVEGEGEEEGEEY
Sequence of microtubules (polymer of tubulin) (A8K068 whole entry, chain 2 of 2, further chain): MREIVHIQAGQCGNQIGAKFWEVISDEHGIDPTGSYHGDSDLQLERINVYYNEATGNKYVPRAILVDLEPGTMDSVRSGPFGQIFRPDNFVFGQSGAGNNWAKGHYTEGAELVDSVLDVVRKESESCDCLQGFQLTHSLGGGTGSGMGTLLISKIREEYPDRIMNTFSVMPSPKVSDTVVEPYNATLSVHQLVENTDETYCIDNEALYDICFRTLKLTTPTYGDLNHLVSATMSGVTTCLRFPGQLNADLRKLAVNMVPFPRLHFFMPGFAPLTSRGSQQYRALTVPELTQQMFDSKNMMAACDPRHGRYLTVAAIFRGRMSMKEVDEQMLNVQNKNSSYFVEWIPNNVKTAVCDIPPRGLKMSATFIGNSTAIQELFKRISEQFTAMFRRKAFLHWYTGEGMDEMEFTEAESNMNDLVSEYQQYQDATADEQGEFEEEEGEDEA

dwell time: 53 ms | mean dwell time: 0.054 s
Substance: EB1_(FKBP) (human EB1 fused at its C-terminus to FKBP)
